From US20140274782A1, “AFFINITY REAGENTS AND METHODS FOR DETECTION, PURIFICATION, AND PROTEOMIC ANALYSIS OF METHYLATED PROTEINS” (The Board of Trustees of the Leland Stanford Junior …, priority 2013, published 2014)

Key:
[1] = target: T1, G9a and GLP (Homo sapiens, UniProt Q96KQ7+Q9H9B1); test: Triple SILAC pull-down after UNC0638 treatment of 293T cells, DMSO/UNC0638 ratio of protein captured by 3×MBT; assay type: cell-based; parameters: cells were treated for 24 hours with UNC0638 at 2.5 μM or DMSO vehicle control; endogenous in cells; host or cells: HEK 293T; settings: for Relative to UNC0638 UNC Heavy / Relative to UNC0638 UNC Light: SILAC ratio DMSO/UNC0638 of protein pulled down with 3xMBT; for Relative to UNC0638 UNC Heavy: UNC0638 in heavy SILAC media; for Relative to UNC0638 UNC Light: UNC0638 in light SILAC media; for Relative to UNC0638 Average: average of UNC Light and UNC Heavy experiments;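 for all read-outs here: mass spectrometry (Q-Exactive) SILAC quantitation, DMSO/UNC0638 ratio computed after subtracting 3×MBTD355N mutant pull-down background, only proteins with at least twofold 3×MBT over mutant signal considered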
T1 sequence (Q96KQ7 2-1210 limits assumed): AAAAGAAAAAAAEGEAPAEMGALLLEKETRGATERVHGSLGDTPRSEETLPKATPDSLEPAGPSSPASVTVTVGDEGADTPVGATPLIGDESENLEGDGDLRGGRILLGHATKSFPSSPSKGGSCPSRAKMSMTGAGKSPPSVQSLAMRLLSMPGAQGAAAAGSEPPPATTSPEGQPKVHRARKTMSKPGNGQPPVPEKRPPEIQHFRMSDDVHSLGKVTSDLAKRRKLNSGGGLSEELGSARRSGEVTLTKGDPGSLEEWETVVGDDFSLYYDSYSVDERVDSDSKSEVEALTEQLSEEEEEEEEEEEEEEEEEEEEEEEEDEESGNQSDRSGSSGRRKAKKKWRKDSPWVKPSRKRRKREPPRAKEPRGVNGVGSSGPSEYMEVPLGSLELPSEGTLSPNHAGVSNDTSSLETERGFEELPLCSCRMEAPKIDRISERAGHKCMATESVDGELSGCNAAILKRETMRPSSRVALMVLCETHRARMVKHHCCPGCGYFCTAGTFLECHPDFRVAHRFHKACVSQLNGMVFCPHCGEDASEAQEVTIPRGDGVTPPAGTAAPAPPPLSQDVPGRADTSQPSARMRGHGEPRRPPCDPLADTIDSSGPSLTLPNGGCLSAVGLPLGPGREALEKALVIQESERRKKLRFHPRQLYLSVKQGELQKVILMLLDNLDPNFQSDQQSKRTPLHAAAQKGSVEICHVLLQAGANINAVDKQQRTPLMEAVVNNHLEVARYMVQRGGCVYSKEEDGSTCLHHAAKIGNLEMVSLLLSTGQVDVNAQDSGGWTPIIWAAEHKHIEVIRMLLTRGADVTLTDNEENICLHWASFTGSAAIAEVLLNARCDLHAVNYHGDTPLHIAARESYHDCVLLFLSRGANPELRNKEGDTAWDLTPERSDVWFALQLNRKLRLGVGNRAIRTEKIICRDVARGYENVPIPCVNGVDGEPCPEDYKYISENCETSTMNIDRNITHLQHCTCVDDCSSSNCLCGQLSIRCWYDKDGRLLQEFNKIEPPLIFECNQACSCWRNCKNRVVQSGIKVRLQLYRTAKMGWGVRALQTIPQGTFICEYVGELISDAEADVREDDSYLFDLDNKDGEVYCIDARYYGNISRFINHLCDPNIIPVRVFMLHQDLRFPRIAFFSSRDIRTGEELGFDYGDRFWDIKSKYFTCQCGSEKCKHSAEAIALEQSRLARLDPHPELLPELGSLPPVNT
T1 sequence (Q9H9B1 2-1298 limits assumed): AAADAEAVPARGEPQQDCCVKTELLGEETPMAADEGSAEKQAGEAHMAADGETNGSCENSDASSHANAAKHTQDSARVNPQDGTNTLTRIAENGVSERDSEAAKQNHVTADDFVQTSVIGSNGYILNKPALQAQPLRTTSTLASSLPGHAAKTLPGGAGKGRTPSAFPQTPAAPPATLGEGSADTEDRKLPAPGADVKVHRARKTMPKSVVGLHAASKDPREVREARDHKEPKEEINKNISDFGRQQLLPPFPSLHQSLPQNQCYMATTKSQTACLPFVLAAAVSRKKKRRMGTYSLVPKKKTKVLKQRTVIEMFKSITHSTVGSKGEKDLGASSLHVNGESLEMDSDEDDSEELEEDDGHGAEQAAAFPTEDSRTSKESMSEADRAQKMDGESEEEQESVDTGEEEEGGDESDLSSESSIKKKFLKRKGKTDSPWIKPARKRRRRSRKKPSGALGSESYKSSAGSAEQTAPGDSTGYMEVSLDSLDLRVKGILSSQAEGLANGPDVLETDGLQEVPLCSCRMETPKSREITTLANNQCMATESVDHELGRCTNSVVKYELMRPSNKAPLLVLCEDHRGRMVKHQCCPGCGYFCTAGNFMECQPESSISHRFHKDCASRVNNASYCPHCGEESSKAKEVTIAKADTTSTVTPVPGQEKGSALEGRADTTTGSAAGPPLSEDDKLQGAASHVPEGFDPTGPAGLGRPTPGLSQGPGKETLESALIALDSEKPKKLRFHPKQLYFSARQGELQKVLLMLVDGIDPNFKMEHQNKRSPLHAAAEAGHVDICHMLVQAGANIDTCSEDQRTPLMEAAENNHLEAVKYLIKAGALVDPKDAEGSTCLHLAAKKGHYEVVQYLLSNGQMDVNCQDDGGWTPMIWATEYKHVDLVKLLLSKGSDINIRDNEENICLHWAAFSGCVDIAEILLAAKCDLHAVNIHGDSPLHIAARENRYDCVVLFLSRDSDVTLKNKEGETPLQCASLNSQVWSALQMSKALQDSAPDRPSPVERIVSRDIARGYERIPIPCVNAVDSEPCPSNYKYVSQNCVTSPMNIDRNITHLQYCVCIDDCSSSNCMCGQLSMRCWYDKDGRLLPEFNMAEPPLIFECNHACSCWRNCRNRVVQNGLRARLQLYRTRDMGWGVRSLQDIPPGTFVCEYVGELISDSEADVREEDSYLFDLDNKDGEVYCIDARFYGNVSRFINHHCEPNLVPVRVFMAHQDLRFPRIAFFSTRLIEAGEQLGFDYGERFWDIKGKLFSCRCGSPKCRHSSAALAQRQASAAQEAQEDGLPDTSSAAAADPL

[2] = tested on: 3×MBT domain of L3MBTL1; test: Triple SILAC pull-down, 3xMBT/3xMBTD355N ratio (cytoplasmic, nuclear and chromatin fractions of 293T cells); assay type: binding, human; settings: SILAC ratio, pull-down 3xMBT vs 3xMBTD355N; for 3xMBT/D355N UNC Heavy: experiment with UNC0638 in heavy SILAC media; for 3xMBT/D355N UNC Light: experiment with UNC0638 in light SILAC media;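 for all read-outs here: proteins quantified with MaxQuant, requiring at least two unique peptides and quantification in both label directions, normalized to the mean of proteins from a digested loading control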

B1: ALKBH5 (protein, UniProt Q6P6C2 2-394, looked up)
RNA demethylase ALKBH5: AAASGYTDLREKLKSMTSRDNYKAGSREAAAAAAAAVAAAAAAAAAAEPYPVSGAKRKYQEDSDPERSDYEEQQLQKEEEARKVKSGIRQMRLFSQDECAKIEARIDEVVSRAEKGLYNEHTVDRAPLRNKYFFGEGYTYGAQLQKRGPGQERLYPPGDVDEIPEWVHQLVIQKLVEHRVIPEGFVNSAVINDYQPGGCIVSHVDPIHIFERPIVSVSFFSDSALCFGCKFQFKPIRVSEPVLSLPVRRGSVTVLSGYAADEITHCIRPQDIKERRAVIILRKTRLDAPRLETKSLSSSVLPPSYASDRLSGNNRDPALKPKRSHRKADPDAAHRPRILEMDKEENRRSVLLPTHRRRGSFSSENYWRKSYESSEDCSEAAGSPARKVKMRRH
In the case of B1, the “Relative to UNC0638 UNC Heavy” value [1] is reported as 0.29 log base 2, the “Relative to UNC0638 UNC Light” value [1] is reported as −0.01 log base 2 and the “Relative to UNC0638 Average” value [1] is reported as 0.14 log base 2. For the same molecule, the “3xMBT/D355N UNC Heavy” value [2] was 1.96 log base 2 and the “3xMBT/D355N UNC Light” value [2] was 1.73 log base 2.

B2: HNRNPC (protein, UniProt P07910 2-306, looked up)
Heterogeneous nuclear …: ASNVTNKTDPRSMNSRVFIGNLNTLVVKKSDVEAIFSKYGKIVGCSVHKGFAFVQYVNERNARAAVAGEDGRMIAGQVLDINLAAEPKVNRGKAGVKRSAAEMYGSVTEHPSPSPLLSSSFDLDYDFQRDYYDRMYSYPARVPPPPPIARAVVPSKRQRVSGNTSRRGKSGFNSKSGQRGSSKSGKLKGDDLQAIKKELTQIKQKVDSLLENLEKIEKEQSKQAVEMKNDKSEEEQSSSSVKKDETNVKMESEGGADDSAEEGDLLDDDDNEDRGDDQLELIKDDEKEAEEGEDDRDSANGEDDS
B2 was tested, and the “Relative to UNC0638 UNC Heavy” value [1] was 0.07 log base 2, the “Relative to UNC0638 UNC Light” value [1] was 0.20 log base 2 and the “Relative to UNC0638 Average” value [1] was 0.13 log base 2. The “3xMBT/D355N UNC Heavy” value [2] was 2.39 log base 2 and the “3xMBT/D355N UNC Light” value [2] was 2.62 log base 2.

B3: TCERG1 (protein, UniProt O14776 1-1098, looked up)
Transcription elongation …: MAERGGDGGESERFNPGELRMAQQQALRFRGPAPPPNAVMRGPPPLMRPPPPFGMMRGPPPPPRPPFGRPPFDPNMPPMPPPGGIPPPMGPPHLQRPPFMPPPMSSMPPPPGMMFPPGMPPVTAPGTPALPPTEEIWVENKTPDGKVYYYNARTRESAWTKPDGVKVIQQSELTPMLAAQAQVQAQAQAQAQAQAQAQAQAQAQAQAQAQAQAQAQAQAQAQAQAQAQAQAQAQAQAQAQAQVQAQVQAQVQAQAVGASTPTTSSPAPAVSTSTSSSTPSSTTSTTTTATSVAQTVSTPTTQDQTPSSAVSVATPTVSVSTPAPTATPVQTVPQPHPQTLPPAVPHSVPQPTTAIPAFPPVMVPPFRVPLPGMPIPLPGVAMMQIVSCPYVKTVATTKTGVLPGMAPPIVPMIHPQVAIAASPATLAGATAVSEWTEYKTADGKTYYYNNRTLESTWEKPQELKEKEKLEEKIKEPIKEPSEEPLPMETEEEDPKEEPIKEIKEEPKEEEMTEEEKAAQKAKPVATAPIPGTPWCVVWTGDERVFFYNPTTRLSMWDRPDDLIGRADVDKIIQEPPHKKGMEELKKLRHPTPTMLSIQKWQFSMSAIKEEQELMEEINEDEPVKAKKRKRDDNKDIDSEKEAAMEAEIKAARERAIVPLEARMKQFKDMLLERGVSAFSTWEKELHKIVFDPRYLLLNPKERKQVFDQYVKTRAEEERREKKNKIMQAKEDFKKMMEEAKFNPRATFSEFAAKHAKDSRFKAIEKMKDREALFNEFVAAARKKEKEDSKTRGEKIKSDFFELLSNHHLDSQSRWSKVKDKVESDPRYKAVDSSSMREDLFKQYIEKIAKNLDSEKEKELERQARIEASLREREREVQKARSEQTKEIDREREQHKREEAIQNFKALLSDMVRSSDVSWSDTRRTLRKDHRWESGSLLEREEKEKLFNEHIEALTKKKREHFRQLLDETSAITLTSTWKEVKKIIKEDPRCIKFSSSDRKKQREFEEYIRDKYITAKADFRTLLKETKFITYRSKKLIQESDQHLKDVEKILQNDKRYLVLDCVPEERRKLIVAYVDDLDRRGPPPPPTASEPTRRSTK
With B3 the “Relative to UNC0638 UNC Heavy” value [1] was −0.10 log base 2, the “Relative to UNC0638 UNC Light” value [1] was 0.37 log base 2 and the “Relative to UNC0638 Average” value [1] was 0.13 log base 2. The “3xMBT/D355N UNC Heavy” value [2] was 2.34 log base 2 and the “3xMBT/D355N UNC Light” value [2] was 3.64 log base 2.
